Several values for one entry are separate records, joined by “and”; a condition that tells them apart may be missing. Identical values can stand only once.
target: HRgpA-6H (Porphyromonas gingivalis) (UniProt P28784); experiment: ELISA, Fab FASEBA supernatant on coated HRgpA-6H (0.0625 ug/ml)
Sequence of UniProt P28784 (P28784 228-991 limits assumed): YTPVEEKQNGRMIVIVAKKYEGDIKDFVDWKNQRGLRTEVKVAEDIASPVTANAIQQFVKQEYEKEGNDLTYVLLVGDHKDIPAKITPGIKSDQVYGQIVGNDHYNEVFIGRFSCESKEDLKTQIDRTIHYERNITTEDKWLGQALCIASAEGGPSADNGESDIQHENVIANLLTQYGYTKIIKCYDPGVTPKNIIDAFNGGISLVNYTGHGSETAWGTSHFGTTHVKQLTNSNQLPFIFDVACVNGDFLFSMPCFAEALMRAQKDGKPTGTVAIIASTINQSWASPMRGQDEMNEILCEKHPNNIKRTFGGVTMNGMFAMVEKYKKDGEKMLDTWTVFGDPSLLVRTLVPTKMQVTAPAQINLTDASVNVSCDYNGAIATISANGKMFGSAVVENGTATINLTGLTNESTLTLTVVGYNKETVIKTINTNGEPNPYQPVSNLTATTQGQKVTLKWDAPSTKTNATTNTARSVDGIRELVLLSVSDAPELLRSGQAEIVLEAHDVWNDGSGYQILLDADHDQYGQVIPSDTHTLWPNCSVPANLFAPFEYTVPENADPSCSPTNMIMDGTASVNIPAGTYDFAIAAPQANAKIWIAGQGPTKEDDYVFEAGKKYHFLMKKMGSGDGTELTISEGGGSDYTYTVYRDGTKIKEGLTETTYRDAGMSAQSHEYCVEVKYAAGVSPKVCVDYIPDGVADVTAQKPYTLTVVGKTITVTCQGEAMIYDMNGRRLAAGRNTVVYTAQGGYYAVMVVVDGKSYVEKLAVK

Row | Binder | OD450nm | Ratio OD(Variant)/OD(WT)
1 | KB001 parental mouse Fab VH variant K64H (Fab, V domains shown) VH: EVQLKQSGPGLVAPSQSLSITCTVSGFSLSIYSVHWVRQPPGKGLEWLGMIWGGGSSDYNSALHSRLSISKDNSKSQVFLKMNSLQTDDTAMYYCARNGNFYAMDYWGQGTSVTVSS VL: QIVLTQSPAIMSASLGERVTMTCTASSSVSSSFLHWYQQKPGSSPQLWIYSTSNLASGVPARFSGSGSGTSYSLTISSMEAEDAATYYCHQYHHSPYIYTFGGGTKLEIK | 0.788 and 0.806 and 0.73 | 0.953 and 0.975 and 0.883
2 | KB001 parental mouse Fab VH variant S65P (Fab, V domains shown) VH: EVQLKQSGPGLVAPSQSLSITCTVSGFSLSIYSVHWVRQPPGKGLEWLGMIWGGGSSDYNSALKPRLSISKDNSKSQVFLKMNSLQTDDTAMYYCARNGNFYAMDYWGQGTSVTVSS VL: QIVLTQSPAIMSASLGERVTMTCTASSSVSSSFLHWYQQKPGSSPQLWIYSTSNLASGVPARFSGSGSGTSYSLTISSMEAEDAATYYCHQYHHSPYIYTFGGGTKLEIK | 0.814 | 0.984
3 | KB001 parental mouse Fab VH variant G99F (Fab, V domains shown) VH: EVQLKQSGPGLVAPSQSLSITCTVSGFSLSIYSVHWVRQPPGKGLEWLGMIWGGGSSDYNSALKSRLSISKDNSKSQVFLKMNSLQTDDTAMYYCARNFNFYAMDYWGQGTSVTVSS VL: QIVLTQSPAIMSASLGERVTMTCTASSSVSSSFLHWYQQKPGSSPQLWIYSTSNLASGVPARFSGSGSGTSYSLTISSMEAEDAATYYCHQYHHSPYIYTFGGGTKLEIK | 0.771 | 0.967
4 | KB001 parental mouse Fab VH variant K64G (Fab, V domains shown) VH: EVQLKQSGPGLVAPSQSLSITCTVSGFSLSIYSVHWVRQPPGKGLEWLGMIWGGGSSDYNSALGSRLSISKDNSKSQVFLKMNSLQTDDTAMYYCARNGNFYAMDYWGQGTSVTVSS VL: QIVLTQSPAIMSASLGERVTMTCTASSSVSSSFLHWYQQKPGSSPQLWIYSTSNLASGVPARFSGSGSGTSYSLTISSMEAEDAATYYCHQYHHSPYIYTFGGGTKLEIK | 0.811 | 0.981
5 | KB001 parental mouse Fab VH variant S65T (Fab, V domains shown) VH: EVQLKQSGPGLVAPSQSLSITCTVSGFSLSIYSVHWVRQPPGKGLEWLGMIWGGGSSDYNSALKTRLSISKDNSKSQVFLKMNSLQTDDTAMYYCARNGNFYAMDYWGQGTSVTVSS VL: QIVLTQSPAIMSASLGERVTMTCTASSSVSSSFLHWYQQKPGSSPQLWIYSTSNLASGVPARFSGSGSGTSYSLTISSMEAEDAATYYCHQYHHSPYIYTFGGGTKLEIK | 0.759 | 0.918
6 | KB001 parental mouse Fab VH variant G99Y (Fab, V domains shown) VH: EVQLKQSGPGLVAPSQSLSITCTVSGFSLSIYSVHWVRQPPGKGLEWLGMIWGGGSSDYNSALKSRLSISKDNSKSQVFLKMNSLQTDDTAMYYCARNYNFYAMDYWGQGTSVTVSS VL: QIVLTQSPAIMSASLGERVTMTCTASSSVSSSFLHWYQQKPGSSPQLWIYSTSNLASGVPARFSGSGSGTSYSLTISSMEAEDAATYYCHQYHHSPYIYTFGGGTKLEIK | 0.769 | 0.965
7 | KB001 parental mouse Fab VH variant G99S (Fab, V domains shown) VH: EVQLKQSGPGLVAPSQSLSITCTVSGFSLSIYSVHWVRQPPGKGLEWLGMIWGGGSSDYNSALKSRLSISKDNSKSQVFLKMNSLQTDDTAMYYCARNSNFYAMDYWGQGTSVTVSS VL: QIVLTQSPAIMSASLGERVTMTCTASSSVSSSFLHWYQQKPGSSPQLWIYSTSNLASGVPARFSGSGSGTSYSLTISSMEAEDAATYYCHQYHHSPYIYTFGGGTKLEIK | 0.769 and 0.739 and 0.77 | 0.965 and 0.927 and 0.966
8 | KB001 parental mouse Fab VH variant S65L (Fab, V domains shown) VH: EVQLKQSGPGLVAPSQSLSITCTVSGFSLSIYSVHWVRQPPGKGLEWLGMIWGGGSSDYNSALKLRLSISKDNSKSQVFLKMNSLQTDDTAMYYCARNGNFYAMDYWGQGTSVTVSS VL: QIVLTQSPAIMSASLGERVTMTCTASSSVSSSFLHWYQQKPGSSPQLWIYSTSNLASGVPARFSGSGSGTSYSLTISSMEAEDAATYYCHQYHHSPYIYTFGGGTKLEIK | 0.728 | 0.88
9 | KB001 parental mouse Fab VH variant S65H (Fab, V domains shown) VH: EVQLKQSGPGLVAPSQSLSITCTVSGFSLSIYSVHWVRQPPGKGLEWLGMIWGGGSSDYNSALKHRLSISKDNSKSQVFLKMNSLQTDDTAMYYCARNGNFYAMDYWGQGTSVTVSS VL: QIVLTQSPAIMSASLGERVTMTCTASSSVSSSFLHWYQQKPGSSPQLWIYSTSNLASGVPARFSGSGSGTSYSLTISSMEAEDAATYYCHQYHHSPYIYTFGGGTKLEIK | 0.823 and 0.767 | 0.995 and 0.927
10 | KB001 parental mouse Fab VH variant S65R (Fab, V domains shown) VH: EVQLKQSGPGLVAPSQSLSITCTVSGFSLSIYSVHWVRQPPGKGLEWLGMIWGGGSSDYNSALKRRLSISKDNSKSQVFLKMNSLQTDDTAMYYCARNGNFYAMDYWGQGTSVTVSS VL: QIVLTQSPAIMSASLGERVTMTCTASSSVSSSFLHWYQQKPGSSPQLWIYSTSNLASGVPARFSGSGSGTSYSLTISSMEAEDAATYYCHQYHHSPYIYTFGGGTKLEIK | 0.794 | 0.96
11 | KB001 parental mouse Fab VH variant S65G (Fab, V domains shown) VH: EVQLKQSGPGLVAPSQSLSITCTVSGFSLSIYSVHWVRQPPGKGLEWLGMIWGGGSSDYNSALKGRLSISKDNSKSQVFLKMNSLQTDDTAMYYCARNGNFYAMDYWGQGTSVTVSS VL: QIVLTQSPAIMSASLGERVTMTCTASSSVSSSFLHWYQQKPGSSPQLWIYSTSNLASGVPARFSGSGSGTSYSLTISSMEAEDAATYYCHQYHHSPYIYTFGGGTKLEIK | 0.825 | 0.998
12 | KB001 parental mouse Fab VH variant S65Y (Fab, V domains shown) VH: EVQLKQSGPGLVAPSQSLSITCTVSGFSLSIYSVHWVRQPPGKGLEWLGMIWGGGSSDYNSALKYRLSISKDNSKSQVFLKMNSLQTDDTAMYYCARNGNFYAMDYWGQGTSVTVSS VL: QIVLTQSPAIMSASLGERVTMTCTASSSVSSSFLHWYQQKPGSSPQLWIYSTSNLASGVPARFSGSGSGTSYSLTISSMEAEDAATYYCHQYHHSPYIYTFGGGTKLEIK | 0.724 | 0.875
13 | KB001 parental mouse Fab VH variant G99A (Fab, V domains shown) VH: EVQLKQSGPGLVAPSQSLSITCTVSGFSLSIYSVHWVRQPPGKGLEWLGMIWGGGSSDYNSALKSRLSISKDNSKSQVFLKMNSLQTDDTAMYYCARNANFYAMDYWGQGTSVTVSS VL: QIVLTQSPAIMSASLGERVTMTCTASSSVSSSFLHWYQQKPGSSPQLWIYSTSNLASGVPARFSGSGSGTSYSLTISSMEAEDAATYYCHQYHHSPYIYTFGGGTKLEIK | 0.74 | 0.928
14 | KB001 parental mouse Fab VH variant K64D (Fab, V domains shown) VH: EVQLKQSGPGLVAPSQSLSITCTVSGFSLSIYSVHWVRQPPGKGLEWLGMIWGGGSSDYNSALDSRLSISKDNSKSQVFLKMNSLQTDDTAMYYCARNGNFYAMDYWGQGTSVTVSS VL: QIVLTQSPAIMSASLGERVTMTCTASSSVSSSFLHWYQQKPGSSPQLWIYSTSNLASGVPARFSGSGSGTSYSLTISSMEAEDAATYYCHQYHHSPYIYTFGGGTKLEIK | 0.781 | 0.944
15 | KB001 parental mouse Fab VH variant K64M (Fab, V domains shown) VH: EVQLKQSGPGLVAPSQSLSITCTVSGFSLSIYSVHWVRQPPGKGLEWLGMIWGGGSSDYNSALMSRLSISKDNSKSQVFLKMNSLQTDDTAMYYCARNGNFYAMDYWGQGTSVTVSS VL: QIVLTQSPAIMSASLGERVTMTCTASSSVSSSFLHWYQQKPGSSPQLWIYSTSNLASGVPARFSGSGSGTSYSLTISSMEAEDAATYYCHQYHHSPYIYTFGGGTKLEIK | 0.784 | 0.948
16 | KB001 parental mouse Fab VH variant G99N (Fab, V domains shown) VH: EVQLKQSGPGLVAPSQSLSITCTVSGFSLSIYSVHWVRQPPGKGLEWLGMIWGGGSSDYNSALKSRLSISKDNSKSQVFLKMNSLQTDDTAMYYCARNNNFYAMDYWGQGTSVTVSS VL: QIVLTQSPAIMSASLGERVTMTCTASSSVSSSFLHWYQQKPGSSPQLWIYSTSNLASGVPARFSGSGSGTSYSLTISSMEAEDAATYYCHQYHHSPYIYTFGGGTKLEIK | 0.639 and 0.698 | 0.802 and 0.876
17 | KB001 parental mouse Fab VH variant K64Q (Fab, V domains shown) VH: EVQLKQSGPGLVAPSQSLSITCTVSGFSLSIYSVHWVRQPPGKGLEWLGMIWGGGSSDYNSALQSRLSISKDNSKSQVFLKMNSLQTDDTAMYYCARNGNFYAMDYWGQGTSVTVSS VL: QIVLTQSPAIMSASLGERVTMTCTASSSVSSSFLHWYQQKPGSSPQLWIYSTSNLASGVPARFSGSGSGTSYSLTISSMEAEDAATYYCHQYHHSPYIYTFGGGTKLEIK | 0.789 | 0.954
18 | KB001 parental mouse Fab VH variant S65F (Fab, V domains shown) VH: EVQLKQSGPGLVAPSQSLSITCTVSGFSLSIYSVHWVRQPPGKGLEWLGMIWGGGSSDYNSALKFRLSISKDNSKSQVFLKMNSLQTDDTAMYYCARNGNFYAMDYWGQGTSVTVSS VL: QIVLTQSPAIMSASLGERVTMTCTASSSVSSSFLHWYQQKPGSSPQLWIYSTSNLASGVPARFSGSGSGTSYSLTISSMEAEDAATYYCHQYHHSPYIYTFGGGTKLEIK | 0.74 | 0.895
19 | KB001 parental mouse Fab VH variant K64L (Fab, V domains shown) VH: EVQLKQSGPGLVAPSQSLSITCTVSGFSLSIYSVHWVRQPPGKGLEWLGMIWGGGSSDYNSALLSRLSISKDNSKSQVFLKMNSLQTDDTAMYYCARNGNFYAMDYWGQGTSVTVSS VL: QIVLTQSPAIMSASLGERVTMTCTASSSVSSSFLHWYQQKPGSSPQLWIYSTSNLASGVPARFSGSGSGTSYSLTISSMEAEDAATYYCHQYHHSPYIYTFGGGTKLEIK | 0.664 | 0.803
20 | KB001 parental mouse Fab VH variant K64E (Fab, V domains shown) VH: EVQLKQSGPGLVAPSQSLSITCTVSGFSLSIYSVHWVRQPPGKGLEWLGMIWGGGSSDYNSALESRLSISKDNSKSQVFLKMNSLQTDDTAMYYCARNGNFYAMDYWGQGTSVTVSS VL: QIVLTQSPAIMSASLGERVTMTCTASSSVSSSFLHWYQQKPGSSPQLWIYSTSNLASGVPARFSGSGSGTSYSLTISSMEAEDAATYYCHQYHHSPYIYTFGGGTKLEIK | 0.789 | 0.954

— patent US20230365662A1
